Data from US20200024330A1.

How the values were obtained:
Assay in all cases: cell-based or functional assay
[1] = target: HIV-1 93UG077 envelope glycoprotein (Env) on pseudovirus (HIV-1)
[2] = target: HIV-1 CMU02 envelope glycoprotein (Env) on pseudovirus (HIV-1)
[3] = target: HIV-1 Env of isolate MG RM-D-016 (subtype D) (HIV-1)
[4] = target: HIV-1 Env of isolate MG RM-D-021 (subtype D) (HIV-1)
[5] = target: HIV-1 Env of isolate MG RM-D-022 (subtype D) (HIV-1)
[6] = target: HIV-1 Env of isolate MGRM-C-006 (pseudovirus) (HIV-1 isolate MGRM-C-006, subtype C)
[7] = target: HIV-1 JR-CSF Env D113A (HIV-1 (isolate JR-CSF)) (UniProt P20871)
[8] = target: HIV-1 JR-CSF Env E172A (HIV-1 (isolate JR-CSF)) (UniProt P20871)
[9] = target: HIV-1 JR-CSF Env N134A (HIV-1 (isolate JR-CSF)) (UniProt P20871)
[10] = target: HIV-1 JR-CSF Env N197A (HIV-1 (isolate JR-CSF)) (UniProt P20871)
[11] = target: HIV-1 JR-CSF Env R480A (HIV-1 (isolate JR-CSF)) (UniProt P20871)
[12] = target: HIV-1 Env of isolate 92RW008 (HIV-1)
[13] = target: HIV-1 Env of isolate 92WR020 (HIV-1)
[14] = target: HIV-1 Env of isolate 92WR021 (HIV-1)
[15] = target: HIV-1 Env of isolate 93WR029 (HIV-1)
[16] = target: HIV-1 Env of isolate APV-6 (pseudovirus) (HIV-1 isolate APV-6, subtype B)
[17] = target: HIV-1 Env of isolate CMU02 (CRF01_AE), on pseudovirus (HIV-1)
[18] = target: HIV-1 Env of isolate MGRM-A-007 (clade A), on pseudovirus (HIV-1)
[19] = target: HIV-1 Env of isolate MGRM-AE-003 (CRF01_AE), on pseudovirus (HIV-1)
[20] = target: HIV-1 Env of isolate MGRM-AE-006 (CRF01_AE), on pseudovirus (HIV-1)
[21] = target: HIV-1 Env of isolate MGRM-AE-007 (CRF01_AE), on pseudovirus (HIV-1)
[22] = target: HIV-1 Env of isolate MGRM-AG-013 (CRF_AG), on pseudovirus (HIV-1)
[23] = target: HIV-1 Env of isolate MGRM-D-005 (HIV-1)
[24] = target: HIV-1 Env of isolate MGRM-D-020 (HIV-1)
[25] = target: HIV-1 Env of isolate MGRM-F1-014 (subtype F), on pseudovirus (HIV-1)
[26] = target: HIV-1 Env of isolate SF162 (HIV-1) (UniProt P19550)
[27] = target: HIV-1 Env of isolate THR0.18 (HIV-1)
[28] = target: HIV-1 Env of isolate MGRM-D-001 (clade D) (HIV-1)

| Substance | Fold IC50 increase relative to wild-type [7] | Fold IC50 increase relative to wild-type [8] | Fold IC50 increase relative to wild-type [9] | Fold IC50 increase relative to wild-type [10] | Fold IC50 increase relative to wild-type [11] | neutralization IC50 [12] | neutralization IC50 [13] | neutralization IC50 [14] | neutralization IC50 [15] | IC50 (µg/mL) neutralization [16] | IC50, single-round pseudovirus neutralization [17] | IC50, single-round pseudovirus neutralization [18] | IC50, single-round pseudovirus neutralization [19] | IC50, single-round pseudovirus neutralization [20] | IC50, single-round pseudovirus neutralization [21] | IC50, single-round pseudovirus neutralization [22] | IC50 [23] | IC50 [24] | IC50, pseudovirus neutralization [25] | IC50 [26] | also measured |
| --- | --- | --- | --- | --- | --- | --- | --- | --- | --- | --- | --- | --- | --- | --- | --- | --- | --- | --- | --- | --- | --- |
| 4858_P08 (PGT-123) (antibody) | 1.1 fold | 1.1 fold | 0.4 fold | 1.4 fold | 1.7 fold |  |  |  |  |  |  |  |  |  |  |  |  |  |  |  | IC50 (ug/ml), neutralizing activity [1]: 0.0303 µg/mL; IC50, pseudovirus neutralization [1]: 0.0303 µg/mL; IC80, pseudovirus neutralization [1]: 0.143 µg/mL; IC90 (pseudovirus neutralization) [1]: 0.35 µg/mL; IC95, pseudovirus neutralization [1]: 0.78 µg/mL; IC50 (ug/ml), neutralizing activity [2]: > 10 µg/mL; IC50, pseudovirus neutralization [2]: > 10 µg/mL; IC80, pseudovirus neutralization [2]: > 10 µg/mL; IC90 (pseudovirus neutralization) [2]: > 10 µg/mL; IC95, pseudovirus neutralization [2]: > 10 µg/mL; IC50 (µg/mL), pseudovirus neutralization [3]: > 50 µg/mL; IC50 (µg/mL), pseudovirus neutralization [4]: 11.1 µg/mL; IC50 (µg/mL), pseudovirus neutralization [5]: > 50 µg/mL; IC50 (µg/mL) neutralization [6]: 0.021 µg/mL |
| 5114_A19 (PGT-128) (antibody) | 0.5 fold | 2.5 fold | 1.2 fold | 1 fold | 0.1 fold | 0.003 µg/mL | 0.005 µg/mL | 0.005 µg/mL | > 50 µg/mL | 0.007 µg/mL | > 50 µg/mL | > 50 µg/mL | 0.18 µg/mL | 0.044 µg/mL | > 50 µg/mL | 0.004 µg/mL | 0.051 µg/mL | 0.011 µg/mL | 0.277 µg/mL | 0.007 µg/mL | IC50 [27]: > 50 µg/mL |
| 5123_A06 (PGT-125) (antibody) | 1.1 fold | 1.8 fold | 0.5 fold | 1 fold | 2.1 fold |  |  |  |  |  |  |  |  |  |  |  |  |  |  |  | IC50 (ug/ml), neutralizing activity [1]: 0.0262 µg/mL; neutralization IC50 [1]: 0.0262 µg/mL; neutralization IC80 [1]: 0.0926 µg/mL; neutralization IC90 [1]: 0.206 µg/mL; neutralization IC95 [1]: 0.487 µg/mL; IC50 (ug/ml), neutralizing activity [2]: > 10 µg/mL; neutralization IC50 [2]: > 10 µg/mL; neutralization IC80 [2]: > 10 µg/mL; neutralization IC90 [2]: > 10 µg/mL; neutralization IC95 [2]: > 10 µg/mL; IC50 (µg/mL), pseudovirus neutralization [3]: 0.12 µg/mL; IC50 (µg/mL), pseudovirus neutralization [4]: 0.015 µg/mL; IC50 (µg/mL), pseudovirus neutralization [5]: 0.04 µg/mL; IC50 (µg/mL) neutralization [6]: 0.015 µg/mL |
| 5136_H01 (PGT-131) (antibody) |  |  | 0.5 fold | 1.1 fold | 1.5 fold | 1.01 µg/mL | 0.168 µg/mL | 0.012 µg/mL | > 50 µg/mL | > 50 µg/mL | > 50 µg/mL | > 50 µg/mL | 1.41 µg/mL | 0.026 µg/mL | 0.026 µg/mL | 0.03 µg/mL | > 50 µg/mL | > 50 µg/mL | > 50 µg/mL | 0.025 µg/mL | IC50 [27]: > 50 µg/mL |
| 5141_B17 (PGT-126) (antibody) | 1.2 fold | 0.7 fold | 0.6 fold | 1.1 fold | 1.9 fold |  |  |  |  |  |  |  |  |  |  |  |  |  |  |  | IC50 (ug/ml), neutralizing activity [1]: 0.0256 µg/mL; IC50 (ug/ml), neutralizing activity [2]: > 10 µg/mL; IC50 (µg/mL), pseudovirus neutralization [3]: > 50 µg/mL; IC50 (µg/mL), pseudovirus neutralization [4]: 0.047 µg/mL; IC50 (µg/mL), pseudovirus neutralization [5]: > 50 µg/mL; IC50 (µg/mL) neutralization [6]: 0.014 µg/mL |
| 5147_N06 (PGT-130) (antibody) | 0.8 fold | 1.4 fold | 0.6 fold | 1.2 fold | 1 fold | 0.039 µg/mL | 0.039 µg/mL | 0.004 µg/mL | 34.3 µg/mL | > 50 µg/mL | > 50 µg/mL | > 50 µg/mL | 0.337 µg/mL | 0.009 µg/mL | 0.083 µg/mL | 0.01 µg/mL | > 50 µg/mL | 24.7 µg/mL | 11.8 µg/mL | 0.007 µg/mL | IC50 (ug/ml), neutralizing activity [1]: > 10 µg/mL; IC50 (ug/ml), neutralizing activity [2]: > 10 µg/mL; neutralization IC50 [28]: > 10 µg/mL; neutralization IC80 [28]: > 10 µg/mL; neutralization IC90 [28]: > 10 µg/mL; neutralization IC95 [28]: > 10 µg/mL; IC50 [27]: > 50 µg/mL |
| 5329_C19 (PGT-136) (antibody) |  |  |  |  |  | > 50 µg/mL | 2.33 µg/mL | > 50 µg/mL | > 50 µg/mL | > 50 µg/mL | > 50 µg/mL | > 50 µg/mL | > 50 µg/mL | > 50 µg/mL | > 50 µg/mL | > 50 µg/mL | > 50 µg/mL | > 50 µg/mL | > 50 µg/mL | 0.482 µg/mL | IC50 [27]: > 50 µg/mL |
| 5343_B08 (PGT-135) (antibody) | 0.8 fold | 1.3 fold | 0.2 fold | 0.3 fold | 1.4 fold | 1.42 µg/mL | 0.067 µg/mL | > 50 µg/mL | > 50 µg/mL | > 50 µg/mL | > 50 µg/mL | > 50 µg/mL | > 50 µg/mL | > 50 µg/mL | > 50 µg/mL | > 50 µg/mL | > 50 µg/mL | > 50 µg/mL | > 50 µg/mL | 0.023 µg/mL | IC50 [27]: > 50 µg/mL |
| 5345_I01 (PGT-137) (antibody) |  |  |  |  |  | 0.148 µg/mL | 0.005 µg/mL | 3.52 µg/mL | > 50 µg/mL | > 50 µg/mL | > 50 µg/mL | > 50 µg/mL | > 50 µg/mL | > 50 µg/mL | > 50 µg/mL | > 50 µg/mL | > 50 µg/mL | > 50 µg/mL | > 50 µg/mL | 3.41 µg/mL | IC50 [27]: > 50 µg/mL |
